From PMC6546751

Target: FITC-casein (fluorescein-labeled casein, Sigma #C0528) (bovine)
Test: not stated; apparent Kd of ClpB for casein in the presence of ATPγS (Supplementary Fig. 1d); method not given

Kd [nM]	Substance
110	Escherichia coli ClpB K476C hyperactive middle-domain variant (from UniProt P63284 1-857) (enzyme)
130	Escherichia coli ClpB, wild type (from UniProt P63284 1-857) (enzyme)
